Assay: yeast display, Sf9 membrane polyspecificity reagent, FACS + sequencing; frameworks hold sequencing errors
How it was run: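 Galactose induction of a Saccharomyces cerevisiae BJ5465 synthetic nanobody display library ran 36–48 hours. The cells were then stained for 1 hour at 4 °C with 10% biotinylated, detergent-solubilized Sf9 membrane reagent, pulled down on streptavidin microbeads and FACS-sorted into low and high (top ~1%) gates on expression and reagent-binding fluorescence. Labels for polyreactivity follow the gate of origin.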

Sequence: QVQLQESGGGLVQACGSLRLSCAASGYIFSHQYMGWYRQAPGKERELVASISPGATTNYADSVKGRFTISRDNAKNTVYLQMNSLKPEDTAVYYYAVYQILDRRLSYWGQGTQVTVSC
- polyreactivity (PSR sort gate): high polyreactivity

Sequence: QVQLVESGGGLVQAGGSLRLSCAASGSIFIVNAMGWYRQAPGKERELVATITSDVDTNYADSVKGRFTISRDNAKNTVYLQMNSLKPEDTAVYYCAKESTKIYRVVEMDYWGQGTQVTVSS
- polyreactivity (PSR sort gate): low polyreactivity

Sequence: QVQLVESGGGLVQAGGSLRLSCAASGLTFNSYDMGWYRQAPGKERELVAAISSGGVLPNYADSVKGRFTISRDNAKNTVYLQMNSLNPEDTAVYYCNVYSWPYDYWGQGTQVTVSS
- polyreactivity (PSR sort gate): low polyreactivity

Sequence: QVQLVESGGGLVQAGGSLRLSCAGSGRTFQYYAMGCYRQAPGKEMELVAGITGGGSTYYADSVKGRFTISRDNAKNTVYLQMNSLKPEDTAVYYCAADRSYYGYGYWGQGTQVTVSS
- polyreactivity (PSR sort gate): low polyreactivity

Sequence: QVHLVESGGGLVQAGGSLRLSCAASGRIFYSNVMGWYSQAPGKERELLAAISWSGGRTYYADSVKGRFTISRDNAKNTVYLQMNSLKPEDTAVYYCAAPGGVKYDYWGQGTQVTVSS
- polyreactivity (PSR sort gate): high polyreactivity

Sequence: QVQLVESGGGLVQAGGSLRLSCAASGSTSDDNTMGWYRQAPGKERELVAAITWSGGRTSYADSVKGRFTISRDNAKNTVYLQMNSLKPEDTAVYYCAADKSGRGLDYWGQGTQVTVSS
- polyreactivity (PSR sort gate): low polyreactivity

Sequence: QVQLVESGGGLVQAGGSLRLSCAASGSNFHPNGMGRYRQAPRTERELVAAIRRSGGSTYYADSVKGRFTISRDNAKNTVYLQMISLKAEDTAVYYCAAKHYYYSRYVRYDPPPGYYWGQGTQVTVSS
- polyreactivity (PSR sort gate): high polyreactivity

Sequence: QVQLVESGGGLVQAGGSLRLSCAASGFIFVRYAMGWYRQAPGKERELVAAISKSGGRTYYADSVKGRFTISRDNAKNTVYLQMNSLKPEDTAVYYCAAYYYVGRVVSFDYWGQGTQVTVSS
- polyreactivity (PSR sort gate): high polyreactivity

Sequence: QVQLVESGGGLVQAGGSLRLTCAASGRIFSRNAMGWYRQAPGKERELVAAISSSGGSTSYADSVKGRFTISRDNAKNTVYLQMNSLKPEDTAVYYCAADSYPAYLGFVGFDYWGQGTQVTVSS
- polyreactivity (PSR sort gate): low polyreactivity

Sequence: QVQLVESGGGLVQAGGSLRLSCAASGFTFDYYTMGWYRQAPGKEREFVAAITWNGGTTNYADSVKGRFTISRDNAKYTVYLQMNSLKPEDTAVYYCAATAYWYFSNDSGRSYDYWGQGTQVTVSS
- polyreactivity (PSR sort gate): low polyreactivity

Sequence: QVQLVESGGGLVQAGGSLRLSCAASGFTFSRNGMGWYRLAPGKERELVADITLSGASTYYADSVKGRFTISRDNAKNTVYLQMKSLKPEDTAVYYCAADPYHWRWGWRHDYWGQGTQVTVSS
- polyreactivity (PSR sort gate): low polyreactivity

Sequence: QVQLVESGGGLVQAGGSLRLSCAASGSILYRYTMGWYRQAPGIERELVAAITKRGGRTYYADSVKGRFTISRDNAKNTVYLQTNSLKPEDTAVYYCAAKYYTGGSFEMYYWGQGTQVTVSS
- polyreactivity (PSR sort gate): high polyreactivity

Sequence: QVQLVESGGGLVQAGGSLRVSCAASGSTFSQYAMGLYRQAPGKEREFVAVITLSVVSTSYADSVKGRFTFSRDNAKNTVYLQMNSQKPEDTAVYYCNKDSGVRGPGYGYWGQGTQVTVSS
- polyreactivity (PSR sort gate): low polyreactivity

Sequence: QVQLVESGGGLVQAGGSLRLSCAASGSTFFYNAMGWSRQAPGKERELVASINDRAGRTYYADSVKGRFSISRDNAKNTVYLQMNSLKPEDTAVYYCAAEPWYKFDDDFWGQGTQVTVSS
- polyreactivity (PSR sort gate): low polyreactivity

Sequence: QVQLVESGGGLVQAGGSLRLSCAASGRIFTYYAMGWYRQAPGKERQLVAAISSGTGTNYADSVKGRFTNSRDNAKNTVYLQMNSLKPEDTAVYDCAADRQHVVVGYYYWGQGTQVTVSS
- polyreactivity (PSR sort gate): low polyreactivity

Sequence: QVQLVESGGGLDQAGGSLRLSCAASGSIFYPYAMRWYRQAPGKERELVAAISSGGGTNYADSVKGRFTISRDNAKNTVYLQMNSLKPEDTEVYYCNARTGTTWQGYEYDYWGQGTQVTVSS
- polyreactivity (PSR sort gate): low polyreactivity

Sequence: QVQLVESGGGLVQAGGSLRLSCAASGRTLHYYAMGWYRQAPGKERELVAAISRTGSTDYADSVKGRFTISRDNAKNTVYLQMNSLKPEDTAVYYCAAYYRYRSGRYYYWGQGTQVTVSS
- polyreactivity (PSR sort gate): high polyreactivity

Sequence: QVQLVESGGGLVQAGGSLRLSCAASGFMFDDNAMGWYRQAPRKERELVAAITSGGGSTYYADSVKGRFTISRDYAKITVYLLMNSLKPEDTAVYYCAAGGYPSLLHDYDYWGQGTQVTVSS
- polyreactivity (PSR sort gate): low polyreactivity

Sequence: QVQLVESGGGLVQAGGSLRLSCAASGITFYVNTKGWYRQAPGKEREVVAAIDWTDGGTYYADSVKGRFTISRDNAKNTVYLQMNSLKPEDTAVYYCALDYYWDIIGLYGYLAYDLDYWGQGTQVTVSS
- polyreactivity (PSR sort gate): low polyreactivity

Sequence: QVQHVESGGGLVQAGGSLRLSCAASGSTIEDYAMGWYRQAPGKERELVAAISFSGARTYYADSVKGRFTISRDKAKNTVYLQMNSLKPEDTAVYYCNAVSGIVQRYDYWGQGTQVTVSS
- polyreactivity (PSR sort gate): high polyreactivity

Sequence: QVQLVESGGGLVQAGGSLRLRCAASGNTFAYYAMGWYRQAPGKERELVASITGSGTSTYYADSVKGRFTISRDNEKNTVYLQMNSLKPEDTAVYYCAKRYYYKWFGYWGQGTQVTVSS
- polyreactivity (PSR sort gate): high polyreactivity

Sequence: QVRLVESGGGLVQAGGSLRLSCAAYGSTFKTYAMGWYRPAPGKERELVAAISAGGGSTYYADSVKGRFTISRDNAKNTVYLQMNSLKPEDTAVYYCAAAYIYAGWDYEYWGQGTQVTVSS
- polyreactivity (PSR sort gate): low polyreactivity

Sequence: QVQLVESGGGLVQAGGSLRLSCAASGIPRNTMGWYRQAPGKERELVASISTSGGSTYYADSVKGRFTISLDNAKKTVYLQMNSLKPEDTAVYYCAKKAYASRYFIYDYWGQGTQVTVSS
- polyreactivity (PSR sort gate): low polyreactivity

Sequence: QVQLVESGGGLVEAGGSLRLSCAASGSTFSVNAMGRYRQAPGKERELVAAISYRGGSTYYADSVKGRFTISRDNAKNTVYFQMNSLKPEDTAVYYCNAQRYRPGYWYDYWGQGTQVTVSS
- polyreactivity (PSR sort gate): high polyreactivity

Sequence: QVQLVESGGGLVQAGGSLRLSCAASGSTIYWYTMGWYRQPPGKEMELVAAITGGTGNTYYADSVKGRFTISRDNAKNTVYLQMNSLKPEDTAVYYCAAYYRRYDYDYWGQGTQVTVSS
- polyreactivity (PSR sort gate): high polyreactivity

Sequence: QVQLVESGGGLVQAGGSLRLSCAASGSIFPSYAMGWYRQAPGKERELVAVINSGGSTYYADSVKGRFTISRDNAKNTVYFQMNSLKPEDTAVYYCAAYRRRYPRFDYWGQGTQVTVSS
- polyreactivity (PSR sort gate): high polyreactivity

Sequence: QVQLVESGGGLVQAGGSLRLSCAASGSTFVRYAMGWYRQAPGKERELVAAISNGGNTYYADSVKGRFTISHDNAKNTVYLQMNSLKPEDTAVYYCNKGYVYGHEYWGQGTQVTVSS
- polyreactivity (PSR sort gate): high polyreactivity

Sequence: QVQLVESGGGLVQAGGSLRLSCAASGSTFYFNAMGWYRQAPGKERELVAGITYSGDSTYYADSVKGRFTISRDNAKNTVYLQMNSLKPEDTAVYYCAADVDYDLDGDYWGQGTQVTVSS
- polyreactivity (PSR sort gate): low polyreactivity

Sequence: QVQLVESGGGLVQAGGSLRLSCAASGLSFYPNGMGWYREAPGKERELVAAITYSDGSTYYADSVKGRFSISRDNAKNTVYLQMNSLKPEDTAVYYGNRVTRWTYNYWGQGTQVTVSS
- polyreactivity (PSR sort gate): high polyreactivity

Sequence: QVQLVESGGGLVQAGGSLRLTCAASGFIFEEYAKGWYRPAPGKERELVAAISRRGGSTYYADSVKGRFTISRDNATNTVYLQMNSLKPEDTAVDYCATDRRYNYWGQGTQVTVSS
- polyreactivity (PSR sort gate): high polyreactivity

Sequence: QVQLVESGGGLVQAGGSLRLTCAASGTIFVRLDMGWYRQAPGNEREFVATIGSGSSTYYADSVKGSFTISRDNVKNTVYLQMNSLKPEDTAVYYCAVSAAEQSRHYYWDQGTQVTVSS
- polyreactivity (PSR sort gate): low polyreactivity

Sequence: QDQLVESGGGLVQAVGSLRLSCAASGSIFDVNALGWYRQAPGKERELVAAISQRGTRTYYADSVKGRFTISRDNAKNTVYLQMNSLKPEDTAVYYCNRGGWRQYDSWGQGTQVTVSS
- polyreactivity (PSR sort gate): high polyreactivity

Sequence: QVQLVESGGGLVQAGGSLRLSCAASGSTFYRYPMGWYRQAPGKEREFVAAISGSGGSTRYADSVKGRFTISRDNAKKTVYLQMNSLKPEDTAVYYCAARSRYGYITFDYWGQGTQVTVSS
- polyreactivity (PSR sort gate): high polyreactivity

Sequence: QVQLVESGGGLVQAGGSLRVSCAASGRTFWTNAMGWYRQAPGKEREILAAISWRGASTFYADSVKGRFTISRDNAKNTVYLQMNSLKPEDTAVYYCAAQSRTRSFYGKYDSWGQGTQVTVSS
- polyreactivity (PSR sort gate): low polyreactivity

Sequence: QVQLVESGGGLVQAGGSLRLSCAASGRIFKNYAMGWYRQAPGKERELVAAISWSGGRTYYADSVKGRFTISRDNAKNTVYLQMNSLKPEDTAVYYCAASIRTGYRYGYWGQGTQVTVSS
- polyreactivity (PSR sort gate): high polyreactivity

Sequence: QVQLVESGGGLVQAGGSLRLSCAASGNTFVTNDMGWYRQAPRKERELVADISWGGASTYYADSVKGRFTISRDNAKNTVYLQMNSLIPEDTAVYYCYATDDITYTYSYDYWGQGTQVTVSS
- polyreactivity (PSR sort gate): low polyreactivity

Sequence: QVQLVESGGGLVQAGGSLRLSCAASGSTFGTYAMGWYRQAPGKERELVAAISYRGGSTYYADSVKGRFTISRDNAKNTVYLQMNSLKPEDTAVYYCATRKYAATGYDYWGQGTQVTVSS
- polyreactivity (PSR sort gate): high polyreactivity

Sequence: QVQLVESGGGLVQAGGSLRLSCAASGLTFPSYAMGWYRQAPGKERELVASISSGGSTTYADSVKGRFTISRDNAKNTVYLQMNSLKPEDTAVYYCAAGRYVLRRGYYYWGQGTQVTVSS
- polyreactivity (PSR sort gate): high polyreactivity

Sequence: QVQLVESGGGLVQAGGSLRLSCAASGFTCTRNAMGWFRQAPGKERELVAAISSSAGSTSYADSVKGRFTISRDNAKNTDYLQMNSLKPEDTAVYYCATEGSYYSWVGKVGYRYQYHYWGQGTQVTVSS
- polyreactivity (PSR sort gate): high polyreactivity

Sequence: QVQLVESGGGLVQAGGSLRLSCAASGSTFPVYAMGWYRQAPGKERELVAAISRSGASTYYAASVKGRFTISRDNAKNTVDLQMNSLKPDDTAVYYCARGYQGRLKYEYWGQGTQVTVSS
- polyreactivity (PSR sort gate): low polyreactivity

Sequence: QVQLVESGGGLVQAGGSLRLSCAASGSIFYQNAMGWYRQAPGKERELVAAITSSGGSTYYADSVKGRFTISRDNAKNTVYLQMNSLKPEDTAVYYCNKYFSWRPYSYYYWGQGTQVTVSS
- polyreactivity (PSR sort gate): high polyreactivity

Sequence: QVQLVESGGRLVQAGGSLRLSCAASGIIFYVYAMGWYRQAPGKERELVAAISSSGGSTYYADSVKGRFTISRDNAKNTVYLQMNSLKPEDSAVYYCAAVSSGYDDWGQGTQVTVTS
- polyreactivity (PSR sort gate): high polyreactivity

Sequence: QVQLVESGGGLVQAGGSLRLSCAASGRIFRYNAMGWYRQAPGKERELVAAITSGTGTNYADSVKGRFTISRDNAKNTVYLQMNSLKPEDTAVYYCAAQPGQAWWSTDHDDYWGQGTQVTVSS
- polyreactivity (PSR sort gate): low polyreactivity
